{"source": "paper PMC11574208", "about": "“Mechanistic basis of atypical TERT promoter mutations”", "binders": {"B1": {"name": "TERTp WT 90 (dsDNA)", "DNA 1": "ACCCCGCCCCGTCCCGACCCCTCCCGGGTCCCCGGCCCAGCCCCCTCCGGGCCCTCCCAGCCCCTCCCCTTCCTTTCCGCGGCCCCGCCC", "DNA 2": "GGGCGGGGCCGCGGAAAGGAAGGGGAGGGGCTGGGAGGGCCCGGAGGGGGCTGGGCCGGGGACCCGGGAGGGGTCGGGACGGGGCGGGGT"}, "B2": {"name": "TERTp -124 mutant 90 (C228T) (dsDNA)", "DNA 1": "B1 DNA 1 with C45T", "DNA 2": "B1 DNA 2 with G46A"}, "B3": {"name": "TERTp -146 mutant 90 (C250T) (dsDNA)", "DNA 1": "B1 DNA 1 with C23T", "DNA 2": "B1 DNA 2 with G68A"}}, "conditions_in_all_cases": "protein: recombinant;recombinant; tags: ;N-terminal His; copies: 1;1; label: 5'-32P on forward (C-rich) strand; blunt", "key": {"[1]": {"target": "T1, GABPA (GABP alpha);GABPB (GABP beta1L) (human?;human?, UniProt Q06546;Q06547 1-454;1-395, |)", "T1 sequence (Q06546 whole entry, chain 1 of 2)": "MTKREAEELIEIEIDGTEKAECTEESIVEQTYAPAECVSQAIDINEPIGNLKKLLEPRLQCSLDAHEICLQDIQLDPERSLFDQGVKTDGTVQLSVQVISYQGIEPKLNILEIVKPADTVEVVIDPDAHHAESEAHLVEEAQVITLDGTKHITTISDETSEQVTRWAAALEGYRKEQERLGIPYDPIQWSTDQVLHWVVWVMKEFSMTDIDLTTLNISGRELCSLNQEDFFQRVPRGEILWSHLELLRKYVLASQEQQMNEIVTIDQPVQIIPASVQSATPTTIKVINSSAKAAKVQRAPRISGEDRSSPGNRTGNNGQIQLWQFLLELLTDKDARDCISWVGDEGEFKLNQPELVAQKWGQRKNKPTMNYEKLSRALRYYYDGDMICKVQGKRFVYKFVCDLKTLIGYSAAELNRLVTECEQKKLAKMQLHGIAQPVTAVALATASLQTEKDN", "T1 sequence (Q06547 whole entry, chain 2 of 2)": "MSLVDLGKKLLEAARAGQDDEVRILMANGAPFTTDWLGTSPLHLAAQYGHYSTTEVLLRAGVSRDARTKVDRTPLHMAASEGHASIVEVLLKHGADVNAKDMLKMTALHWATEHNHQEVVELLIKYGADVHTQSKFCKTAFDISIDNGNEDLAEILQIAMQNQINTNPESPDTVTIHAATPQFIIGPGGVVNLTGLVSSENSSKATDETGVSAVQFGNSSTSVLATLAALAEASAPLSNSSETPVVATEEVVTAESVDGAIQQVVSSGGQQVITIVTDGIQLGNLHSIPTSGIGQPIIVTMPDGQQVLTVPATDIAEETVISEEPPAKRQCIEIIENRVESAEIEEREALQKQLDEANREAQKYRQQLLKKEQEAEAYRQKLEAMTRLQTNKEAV", "experiment": "DNase I footprinting; 5 uM GABP; bound via native site, not at the unmutated proto-sites; 20 mM Tris-Cl pH 7.5, 5% glycerol, 5.2 mM MgCl2, 50 mM KCl, 1 mM TCEP, 20 nM oligo, 1 h room temperature; EMSA on 4% native PAGE, 0.5x TBE, 4 C"}, "[2]": {"target": "T1, GABPA (GABP alpha);GABPB (GABP beta1L)", "experiment": "DNase I footprinting; 5 uM GABP; -124 de novo site and native site; 20 mM Tris-Cl pH 7.5, 5% glycerol, 5.2 mM MgCl2, 50 mM KCl, 1 mM TCEP, 20 nM oligo, 1 h room temperature; EMSA on 4% native PAGE, 0.5x TBE, 4 C"}, "[3]": {"target": "T1, GABPA (GABP alpha);GABPB (GABP beta1L)", "experiment": "DNase I footprinting; 5 uM GABP; -146 de novo site and native site; 20 mM Tris-Cl pH 7.5, 5% glycerol, 5.2 mM MgCl2, 50 mM KCl, 1 mM TCEP, 20 nM oligo, 1 h room temperature; EMSA on 4% native PAGE, 0.5x TBE, 4 C"}}, "note": "Residue numbers refer to the chain shown, from its start. Numbers in names are those of the source.", "data": [{"binder": "B1", "values": [{"measurement": "binding result", "setting": "[1]", "value": "binds"}]}, {"binder": "B2", "values": [{"measurement": "binding result", "setting": "[2]", "value": "binds"}]}, {"binder": "B3", "values": [{"measurement": "binding result", "setting": "[3]", "value": "binds"}]}]}
